Experimental data from the supplement of paper PMC10057847, “Precision engineering of biological function with large-scale measurements and machine learning” (PLOS ONE, 2023).
Several values for one entry are separate records, joined by “and”; a condition that tells them apart may be missing. Identical values can stand only once. ± gives the uncertainty stated by the source.

B1: library; the commonest letter at each place (parent)
chain: MKPVTLYDVAEYAGVSYQTVSRVVNQASHVSAKTREKVEAAMAELNYIPNRVAQQLAGKQSLLIGVATSSLALHAPSQIVAAIKSRADQLGASVVVSMVERSGVEACKAAVHNLLAQRVSGLIINYPLDDQDAIAVEAACTNVPALFLDVSDQTPINSIIFSHEDGTRLGVEHLVALGHQQIALLAGPLSSVSARLRLAGWHKYLTRNQIQPIAEREGDWSAMSGFQQTMQMLNEGIVPTAMLVANDQMALGAMRAITESGLRVGADISVVGYDDTEDSSCYIPPLTTIKQDFRLLGQTSVDRLLQLSQGQAVKGNQLLPVSLVKRKTTLAPNTQTASPRALADSLMQLARQVSRLESGQ

Legend:
Conditions in all cases: with IPTG
IPTG [1] = variants of: B1
Method: (§1)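 LacI variants on the pVER plasmid regulate eYFP behind lacO in E. coli MG1655Δlac, grown in rich M9 at 37 °C with a 2-fold IPTG dilution series. After two 160-min growth steps, YFP is read by flow cytometry and calibrated to MEF. Bayesian MCMC fits of the Hill equation give G0, G∞, EC50 and n (posterior mean ± SD).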

IPTG [2] = variants of: B1; assay: Hill coefficient n (dimensionless); higher = steeper dose response
Method: as §1

IPTG [3] = variants of: B1; assay: basal output G0 (YFP, no IPTG) (log10 MEF); higher = higher reporter expression without inducer
Method: as §1

IPTG [4] = variants of: B1; assay: saturating output G-infinity (YFP) (log10 MEF); higher = higher reporter expression at saturating IPTG
Method: as §1

Variant	EC50 for IPTG (log10 µmol/L) (IPTG [1])	Hill coefficient n (IPTG [2])	basal output G0 (log10) (IPTG [3])	saturating output G-infinity (log10) (IPTG [4])
S70R V271M	1.521 ± 0.012	1.46 ± 0.044	2.7 ± 0.066	4.268 ± 0.0045
I64V V95M Q131R T141A D152E N208I A222T L295M K327N	0.469 ± 0.011	1.55 ± 0.075	3.589 ± 0.011	4.4894 ± 0.0031
S70R	1.42 ± 0.021	1.44 ± 0.064	2.58 ± 0.09	4.22 ± 0.0077
S70R F161V	2.02 ± 0.013	1.29 ± 0.039	3.01 ± 0.037	4.3852 ± 0.0042
V9I R255C E259D T336I R355Q	1.05 ± 0.014	1.38 ± 0.044	3.374 ± 0.028	4.5116 ± 0.0042
S70R V150A S190T F226L	0.971 ± 0.021	1.48 ± 0.089	3.37 ± 0.035	4.221 ± 0.0049
S69T	1.7 ± 0.018	1.64 ± 0.06	2.07 ± 0.53	4.406 ± 0.0077
S69F	1.05 ± 0.042	1.51 ± 0.14	2.66 ± 0.67	4.379 ± 0.015
E11K A67P F161S A186V M230L D344N	0.815 ± 0.031	1.44 ± 0.11	3.548 ± 0.033	4.236 ± 0.006
E44D R101G R303S R355L	1.62 ± 0.023	1.53 ± 0.093	2.44 ± 0.76	4.461 ± 0.0089
P76Q V150A N157D Q181H I210L M254T I283N	2.23 ± 0.046	1.11 ± 0.11	4.237 ± 0.007	3.925 ± 0.008
S70R I83F	1.24 ± 0.028	1.36 ± 0.079	3.18 ± 0.04	4.347 ± 0.0092
S70R V96E T154I S158R V238D M254I V264I	3.671 ± 0.018	3 ± 0.23	4.516 ± 0.0061	3.396 ± 0.026
Q55H D130E V192A T258I D267N Y273H N333I	2.889 ± 0.028	1.39 ± 0.097	4.402 ± 0.0063	3.681 ± 0.016
S70R A87P V301M E357G	3.59 ± 0.015	1.66 ± 0.081	4.5727 ± 0.004	3.672 ± 0.019
A27T A87T S102G N316I L330P Q352R	1.04 ± 0.011	1.44 ± 0.038	3.624 ± 0.013	4.5229 ± 0.003
L56M	1.05 ± 0.033	1.39 ± 0.12	3.976 ± 0.018	4.548 ± 0.0075
I83M V136E	1.48 ± 0.029	1.21 ± 0.075	4.519 ± 0.0083	3.789 ± 0.011
S70R V136E	1.841 ± 0.017	1.69 ± 0.085	4.55 ± 0.0061	3.806 ± 0.01
M42I R51C	1.496 ± 0.014	1.6 ± 0.058	3.21 ± 0.035	4.511 ± 0.0051
T68I	1.41 ± 0.045	1.28 ± 0.1	3.24 ± 0.054	4.419 ± 0.015
E39D N208D A222V	1.37 ± 0.022	1.55 ± 0.079	3.1 ± 0.043	4.484 ± 0.0081
K84E D88Y L90P Q153L A199V L342M R351P S358R	1.47 ± 0.046	0.795 ± 0.045	4.34 ± 0.01	3.722 ± 0.01
A72V K84N I210F M254T T336S	0.962 ± 0.049	0.934 ± 0.078	4.369 ± 0.0082	4.067 ± 0.0058

Variant	EC50 for IPTG (log10 µmol/L) (IPTG [1])	Hill coefficient n (IPTG [2])	basal output G0 (log10) (IPTG [3])	saturating output G-infinity (log10) (IPTG [4])
I83M S97T V136E	2.29 ± 0.05	0.765 ± 0.058	4.52 ± 0.0074	4.113 ± 0.012
V15I F161I A266T K290R M347I	2.85 ± 0.076	1.46 ± 0.13	3.111 ± 0.019	4.369 ± 0.043
I83F G200C	1.913 ± 0.0091	1.48 ± 0.032	3.03 ± 0.023	4.4658 ± 0.0031
S70R Q181H	1.49 ± 0.03	1.46 ± 0.12	2.55 ± 0.62	4.269 ± 0.011
L56M Q317L	1.07 ± 0.085	1.44 ± 0.3	3.96 ± 0.044	4.485 ± 0.018
S77P E105V	2.049 ± 0.0095	1.59 ± 0.043	2.53 ± 0.067	4.1995 ± 0.004
S69T L169P	2.348 ± 0.019	1.43 ± 0.062	2.68 ± 0.082	4.362 ± 0.0071
Q55K G121V N333I	1.78 ± 0.031	1.58 ± 0.092	2.37 ± 0.36	4.393 ± 0.012
S70R Q231R	1.509 ± 0.0064	1.47 ± 0.025	2.67 ± 0.037	4.251 ± 0.0022
L56M A194V	2.393 ± 0.016	1.42 ± 0.045	3.9036 ± 0.0036	4.549 ± 0.0059
S70R N208Y	1.444 ± 0.0064	1.46 ± 0.026	2.66 ± 0.045	4.2522 ± 0.0022
V80L L169P	2.47 ± 0.026	1.2 ± 0.077	1.86 ± 0.58	3.696 ± 0.0083
A82V	1.93 ± 0.025	1.51 ± 0.075	1.71 ± 0.7	4.252 ± 0.01
A82G	2.576 ± 0.011	1.3 ± 0.021	2.51 ± 0.036	4.414 ± 0.0045
S69T I83M S97T	1.957 ± 0.0053	1.61 ± 0.017	1.17 ± 0.54	4.4073 ± 0.0024
S28G T34M Q60R A81S E100K L148V S221N V271L	0.477 and 0.475	1.41 and 2.02	3.92	4.46 and 4.41
R51C	0.988 ± 0.036	1.44 ± 0.14	3.91 ± 0.021	4.49 ± 0.0086
R51H	1.19 ± 0.02	1.46 ± 0.061	3.701 ± 0.013	4.63 ± 0.0066
Q60R N113S R207G R216G V271M L307I A350T	2.236 ± 0.011	1.62 ± 0.029	2.28 ± 0.058	4.401 ± 0.0051
M42I	2.437 ± 0.015	1.43 ± 0.046	0.821 ± 0.6	4.148 ± 0.0056
S70R S97T	1.16 ± 0.037	1.37 ± 0.1	3.15 ± 0.062	4.362 ± 0.012
V80L S279T	1.566 ± 0.0048	1.56 ± 0.023	2.07 ± 0.088	3.9365 ± 0.0017
A72V A110V N142D S322L	0.557 ± 0.022	1.42 ± 0.1	3.778 ± 0.015	4.443 ± 0.0049
S69T S97T	1.37 ± 0.019	1.55 ± 0.059	2.65 ± 0.11	4.496 ± 0.0072

Variant	EC50 for IPTG (log10 µmol/L) (IPTG [1])	Hill coefficient n (IPTG [2])	basal output G0 (log10) (IPTG [3])	saturating output G-infinity (log10) (IPTG [4])
S69T I83M	2.293 ± 0.009	1.48 ± 0.033	1.02 ± 0.61	4.2699 ± 0.0031
S69T V80L	1.75 ± 0.025	1.38 ± 0.066	1.09 ± 0.68	4.182 ± 0.0044
L56M D130E	0.886 ± 0.058	1.42 ± 0.21	4.026 ± 0.027	4.51 ± 0.011
V24L V52M A72T A214V I268V K325Q P332H A337V	1.467 ± 0.0061	1.59 ± 0.03	2.62 ± 0.054	4.2255 ± 0.002
K2R A92V R195P D278G	2.91 ± 0.042	2.03 ± 0.12	3.086 ± 0.01	4.436 ± 0.04
M42L V66I S93N D132V	1.646 ± 0.0068	1.59 ± 0.033	2.55 ± 0.058	4.1768 ± 0.0024
V80L	2.098 ± 0.0098	1.52 ± 0.036	1.75 ± 0.28	3.914 ± 0.0043
I83M S97T	2.18 ± 0.046	1.52 ± 0.16	1.25 ± 0.81	4.399 ± 0.017
E36V Q89H D132G A138D E277A Q306E S322T	2.315 ± 0.02	1.54 ± 0.044	2.12 ± 0.15	4.363 ± 0.01
E11K A27G K37N H112L A139V S191P	2.26 ± 0.028	1.4 ± 0.06	3.373 ± 0.0099	4.426 ± 0.012
A87P V301M E357G	2.37 ± 0.024	1.18 ± 0.053	4.51 ± 0.0073	3.619 ± 0.014
V80L V96E T154I S158R V238D M254I V264I	1.68 ± 0.055	1.16 ± 0.085	4.207 ± 0.016	3.07 ± 0.031
S70R S97T F161V	1.71 ± 0.068	1.16 ± 0.12	3.29 ± 0.059	4.429 ± 0.023
S69T S279T	1.28 ± 0.013	1.56 ± 0.053	2.7 ± 0.11	4.428 ± 0.0047
S69F V95A A110E I159S	1.109 ± 0.01	1.64 ± 0.055	2.8 ± 0.081	4.2252 ± 0.003
V80L I83M	2.444 ± 0.013	1.37 ± 0.045	0.521 ± 0.46	3.718 ± 0.0043
I83F	1.29 ± 0.02	1.43 ± 0.06	2.91 ± 0.064	4.434 ± 0.0071
I83M	2.555 ± 0.019	1.48 ± 0.049	1.45 ± 0.61	4.268 ± 0.0077
S70R S190C	1.547 ± 0.0043	1.47 ± 0.017	2.64 ± 0.029	4.2816 ± 0.0016
V80L A87P V301M E357G	1.57 ± 0.045	1.15 ± 0.079	4.52 ± 0.015	3.493 ± 0.02
L62M A109V D149E M242V P285S Q317R	2.91 ± 0.051	1.37 ± 0.066	2.56 ± 0.042	4.412 ± 0.028
H74Y A92V H112L S151T D165N H179Q	1.29 ± 0.014	1.54 ± 0.049	4.426 ± 0.0049	3.262 ± 0.017
V80L S97T	1.611 ± 0.0061	1.57 ± 0.031	2.33 ± 0.069	4.0264 ± 0.0022
V80L I83M S97T	1.986 ± 0.0056	1.55 ± 0.025	1.99 ± 0.077	3.8535 ± 0.0021
